First the molecules themselves.
B1: TPR t1 (parent)
chain: GACCAAUCUGCCCUCAGAGCUCGAGAACAUCUUCGGAUGCAGAGGAGGCAGGCUUCGGUGGCGCGAUAGCGCCAACGUCCUCAACCUCCAAUGCAUCCCACCACAUGAUGAUGCCUGAAGAGCCUUGGUUUUUUG

The series covers variants of B1. As to the kind of experiment: polymerase ribozyme fitness, log enrichment relative to wild type (log ratio); higher = more active; in vitro selection for triplet polymerase activity. The gist of the method: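 Only genotypes with ≥10 input reads and ≥1 read per output were kept after Illumina sequencing of input and output libraries. These libraries were PCR-built, transcribed mutants of each subunit of a heterodimeric triplet polymerase ribozyme, each put through one triplicate in vitro selection round with frozen incubation at −7 °C, gel excision of extended constructs, streptavidin-bead capture and RT-PCR. Fitness is a logarithmic ratio of genotype enrichment to wild-type enrichment, from inverse-variance-weighted replicate averages, with the logarithm in base 2.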
Turning to GACCAAUCUGCUCUCAGAGCUCGAGAACAUCUUCGGAUGCAGAGGUGGCAGGUUUCGGUGGCGCGAUAGCGCCAACGUACUCUACCUCCAAUGCAUCCCACCACAUGAUGAUGCCUGAAGAGCCUUGGUAUUUUG [C12U A46U C53U C79A A83U U130A], the “polymerase ribozyme fitness (log ratio)” value is -4.07. For GACCAAUCUGCUCUCAGAGCUCGAGAGCAUCUUCGGAUGCAGAGGAGGCAGGCUUCGGUGGCGCGAUAGUGCCAACGUCCUCAACCUACAAUGCAUCCCACCACAUGAUGAUGCCUGAAGAGGCUAGGUUUUUUG [C12U A27G C70U C88A C123G U126A], the “polymerase ribozyme fitness (log ratio)” value was -2.52. To GACCAAUCUGCUCUCAGAGCUCGAGAACGUCUUCGGAUGCAGAGUAGGCAGGCUUUGGUGGCGCGAUAGCGCCAACGUCCUCAACCUCAAUUGCAUCCCACCACAUGAUAAUGCCUGAAGAGCCUUUGUUUUUUG [C12U A29G G45U C56U C89A A91U G110A G127U] belongs -5.23; to GACCAAUCUGCUCUCAGAGCUCGAGAGGAUCUUCGGAUGCAGAGGAGGCAGGCUUCGGUGGCGCGAUAUCGCCAACGUCCUCAACCUCCAAUGCAUCCCACCACAUGAUGAUGCCUGAAGAGCCUUGGUUUUUUG [C12U A27G C28G G69U], -2.22.

GACCAAUCUGCUCUCAGAGCUCGAGAACAUCUUCGGCUGCAGAGGUGGCAGGCUUCGGUGGCGCGAUAGCGCCAACGUCCUCAACCUCCAAUGCAUCCCACCACAUGAUGAUGCCUGAAGAGCCUUGGUUUUUUG [C12U A37C A46U]: the “polymerase ribozyme fitness (log ratio)” value was -1.38.

With GACCAAUCUGCUCUCAGAGCUCGAGAACAUCUUCGGAUGCAGCGGAGGCAGGCUUCGGUGGCGCGAUAGCGACAACGUCCUCAACCUCCUAUGCAUCCCACCACAUGAUGAUGCCUGAAGAGCCUUGGUUUUUUG [C12U A43C C72A A90U], the “polymerase ribozyme fitness (log ratio)” value was -0.685. Take GACCAAUCUGCUCUCAGAGCUCGAGAACAUCUUCGGCUGCAGAGGAGGCAGGCUUCGGUGGCGCGAUAGCGCCAACGUCCUCAACCUCCAAUGCAUCCCACCACAUGAUGAUACCUGAAGAGGCUUGGUUUUUUG [C12U A37C G113A C123G]: the “polymerase ribozyme fitness (log ratio)” value came to 0.27. In the case of GACCAAUCUGCUCUCAGAGCUCGAGAACAUCUUCGGAUGCGGAGGAGACAGGCUUCGGUGGCGCGAUAGCGCCAACGUCCUCAACUUCCAAUGCAUCCCACCACAUGAUGAUGCCUGAAGAGCCUUGGUUUUUUG [C12U A41G G48A C86U], the “polymerase ribozyme fitness (log ratio)” value is -0.927. Consider GACCAAUCUGCUCUCAGAGCUCGAGAACAUCUUCGGCUGCAGAGGAGGCAGGCUUCGGUGGCGCGAUAGCGCCAACGUCCUCAACCUCCAAUGCAUCCCACCACAUGAUGAUGCCUGAAGAGCCUUGGUUUUUUG [C12U A37C], for which the “polymerase ribozyme fitness (log ratio)” value is -0.693. With GACCAAUCUGCUCUCAGAGCUCGAGAACAUCUUCGGUUGCAGAGGAGGCAGGCUUCGGUGGCGCGAUAGCGCCAACGUCCUCAACCUCCAAUGCAUCCCACCACAUGAUGAUGCCUGAAGAGCCUUGGUUUUUUG [C12U A37U], the “polymerase ribozyme fitness (log ratio)” value is 0.327.

As to GACCAAUCUGCUCUCAGAGCUCGAGAACAUCUUCGGUUGCAGAGGAGGCAGGCUUCGGUGGCGCGAUAACGCCAACGUCCUCAACCUCCAAUGCAUCCCACCACAUGAUGAUGCCUGAAGAGCCUUGUUUUUUUG [C12U A37U G69A G128U], the “polymerase ribozyme fitness (log ratio)” value is -5.83.

In the case of GACCAAUCUGCUCUCAGAGCUCGAGAGCAUCUUCGGAUGCAGAGGAGCCAGGCUUCGGUGGCGCGAUAGCGCCAACGUCCUCAACCUCCAAUGCAUCCCACCACAUGAUGAUGCCUGAAGAGCCUUGGUUUUUUG [C12U A27G G48C], the “polymerase ribozyme fitness (log ratio)” value is -1.97.

As for GACCAAUCUGCUCUCAGAGCUCGAGAACAUCUUCGGAUGCUGAGGCGACAGGCUUCGGUGGCGCGAUAGCGUCAACGUCCUCAACCUACAAUGCAUCCCACUACAUGAUGAUGGUUGAAGAGCCUUGGUUUUUUG [C12U A41U A46C G48A C72U C88A C102U C114G C115U], the “polymerase ribozyme fitness (log ratio)” value was -8.1. Take GACCAAUCUGCUCUCAGAGCUCGAGAACAUCUUCGGCUGCAGAGAAGGCAGGCUUCGGUGGCUCGAUAGCGCCAACGUCCUCAACCUCCAAUGCAUCCCACCACAUGAUGAUGCCUGAAGAGCCUUGGUUUUUUG [C12U A37C G45A G63U]: the “polymerase ribozyme fitness (log ratio)” value was -1.7. To GACCAAUCUGCUCUCAGAGCUCGAGAACAUCUUCGGAUGCCGAGGAGGCAGGCUUCGGUGGCGCGAUAGCGGCAACGUCCUCAACAUCCAAUGCAUCCCACCACAUGAAGAUGCCUGAAGAGCCUUGGUUUUUUG [C12U A41C C72G C86A U109A] belongs -7.19; to GACCAAUCUGCUCUCAGAGCUCGAGAACAUCUUCGGAUGCGGAGGAGGCAGGCUUCGGUGGCGCGAUAGCGCCAACGUCCUCAACCUCCAAUGCAUCCCACCACAUGAUGAUGCCUGAAGAGCCUUGGUUUUUUG [C12U A41G], 0.638; to GACCAAUCUGCUCUCAGAGCUCGAGAACAUCUUCGGAUGCUGAGGAGGCAGGCUUCGGUGGCGCGAUAGCUCCAACGUCCUCAACCUCCAAUGCAUCCCACCUCAUGAUGAUGCCUGUAGAGCCUUGGUUUUUUG [C12U A41U G71U A103U A118U], -6.98. As to GACCAAUCUGCUCUCAGAGCUCGAGAACUUCUUCGGAUGCAGAGGAGGCAGGGUUCGGUGGCGCGAUAGCGCCUACGUCCUCAACCUCCAAUGCAUCCCACCACAUGAUGAUGCCUGAAGAGCCUUGGUUUUUUG [C12U A29U C53G A74U], the “polymerase ribozyme fitness (log ratio)” value was -2.34.

Take GACCAAUCUGCUCUCAGAGCUCGAGAACAUCUUCGGAUGCUGAGGAGGCAGGCUUCGGUGGCGCGUUAGCGCCAACGUCCUCAACCUCCAAUGCAUCCCACCACAUGAUGAUGCCUGAAGAGCCUUGGUUUUUUG [C12U A41U A66U]: the “polymerase ribozyme fitness (log ratio)” value was -2.82. GACCAAUCUGCUCUCAGAGCUCGAGAACGUCUUCGGAUGCAGAGGAGGCAGGCUUCGGUGGCGCGAUAGCGCCAACGUCCUCAACCUCCAAUGCAUCCCACCACAUGAUGAUGCCUGAAGAGCCAUGGUUUUUUG [C12U A29G U125A]: the “polymerase ribozyme fitness (log ratio)” value was -1.53.

Take GACCAAUCUGCUCUCAGAGCUCGAGAUCAUCUUCGGAUGAAGAGGAGGCAGGCUUCGGUGGCGCGAUAGCGCCAACGGCCUCAACCUCCAAUGCAUCCCACCACAUGAAGAUGCCUGAAGAGUCUUGGUCUUUUG [C12U A27U C40A U78G U109A C123U U130C]: the “polymerase ribozyme fitness (log ratio)” value was -3.99.

Values taken from the RNAGym collection of RNA variant scans (doi:10.1073/pnas.2313332121).
